Data: article PMC6080600 (Nature structural & molecular biology, 2018)

Target: the molecule itself
Assay: cryo-EM structure

B1: zebrafish RAG1 (recombination-activating gene 1 protein), residues 271-1031, with N-terminal 6xHis-MBP tag (domain or fragment, UniProt O13033 271-1031, looked up)
chain: RCQRDHLSTKLIPTEVPADLIRAVTCQVCDHLLSDPVQSPCRHLFCRLCIIRYTHALGPNCPTCNQHLNPSHLIKPAKFFLATLSSLPLLCPSEECSDWVRLDSFREHCLNHYREKESQEEQTPSEQNLDGYLPVNKGGRPRQHLLSLTRRAQKHRLRDLKNQVKTFAEKEEGGDVKSVCLTLFLLALRAGNEHKQADELEAMMQGRGFGLHPAVCLAIRVNTFLSCSQYHKMYRTVKATSGRQIFQPLHTLRNAEKELLPGFHQFEWQPALKNVSTSWDVGIIDGLSGWTVSVDDVPADTISRRFRYDVALVSALKDLEEDIMEGLRERALDDSMCTSGFTVVVKESCDGMGDVSEKHGSGPAVPEKAVRFSFTIMSISIRLEGEDDGITIFQEQKPNSELSCRPLCLMFVDESDHETLTAILGPVVAERKAMMESRLIISVGGLLRSFRFFFRGTGYDEKMVREMEGLEASGSTYICTLCDSTRAEASQNMVLHSITRSHDENLERYEIWRKNPFSESADELRDRVKGVSAKPFMETQPTLDALHCDIGNATEFYKIFQDEIGEVYQKPNPSREERRRWRSTLDKQLRKKMKLKPVMRMNGNYARRLMTREAVEAVCELVPSEERREALLKLMDLYLQMKPVWRSTCPSRDCPDQLCQYSYNSQQFADLLSSMFKYRYDGKITNYLHKTLAHVPEIVERDGSIGAWASEGNESGNKLFRRFRKMNARQSKTFELEDILKHHWLYTSKYLQKFMEAHKNS
- stoichiometry N: 2
